These results are taken from the supplement of paper PMC12764529.

Series [1] is described as follows: folding stability dG unfold from trypsin proteolysis; higher = more stable. The method, then:
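Folding stability of de novo designed mini-proteins (<80 aa, no Cys; designed by TrROS, TrMRF, ProteinMPNN and the joint model) was measured by cDNA display proteolysis with trypsin and chymotrypsin. Each protease was used at 11 concentrations in a threefold dilution series plus a no-protease condition. K50 was inferred by Bayesian fitting of sequencing counts, and dG unfold was derived against a sequence-predicted unfolded-state K50 (Tsuboyama et al. method). Sequences shown include variable-length N-terminal GS-type padding (SAGGSAGG...) inside a display construct carrying a PA tag. Rows were kept only if the AF2 dimer inter-PAE was >15, to exclude likely homo-oligomers.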

Series [2] in a line: folding stability dG unfold (combined trypsin and chymotrypsin); higher = more stable. The gist of the method: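 Digests were run with trypsin and chymotrypsin at 11 concentrations in threefold dilutions, plus a no-protease condition, on designed mini-proteins in a PA-tagged cDNA display construct. The mini-proteins were under 80 residues, had no cysteine, and were kept only when AlphaFold2 dimer inter-PAE was above 15. After sequencing, Bayesian fitting of the counts gave K50, from which unfolding free energy was derived against a sequence-predicted unfolded-state K50 and a shared folded-state K50, per protease or combined.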

± gives the half width of the 95% confidence interval. Where only a bound is given, the exact number is not on record here.

On to “SAGSMEVKVEIPEEVLKKIESAPPGTVVEYTETVTITTTTTIPGPGNPVPLTSTTPSPIKLTYTKPSSPSAG [r5_946_JUSTAS]”, for which the “folding stability dG unfold” value was -0.608 ± 0.06 kcal/mol in series [1] and -0.915 ± 0.31 kcal/mol in series [2].
In the same order, the values of “SAKPIPAKDITINMHPPPGGNFNFEIELDDKEIGEHPFKSPEDMQEGMKEIAKELAALLGPDDIKIKPWSAG [r14_791_TrROS]” are 0.4 ± 0.075 kcal/mol and -0.0161 ± 0.25 kcal/mol.
For the sequence “SAKVFTAEEIKALAEELEKAGLEVEAVVLDKDGKIVAVAPKELLKPPPVEEVKEVKVEVEDDPEKLKAAKSA [r9_568_TrROS_Hall]”, the results for the “folding stability dG unfold” value in series [1] and in series [2] were -0.442 ± 0.97 kcal/mol and under -1 kcal/mol, respectively.
“SALINLKKEDVEKLVKALEKEGNYKVKIKPVKVVYKPKDGSKKPIGAVKIEVIDPDNPKSLLDKIKKAGSAG [r14_628_TrMRF]”: the “folding stability dG unfold” value was -1.29 ± 0.62 kcal/mol in series [1] and under -1 kcal/mol in series [2].
“SAMIKIEIVLPEEDLEKLLESEEVKELAKELEKKTGLKITSIKIEKKEVEVNGEKKKVVVITIEIEPEPSAG [r14_819_TrROS_Hall]”: the “folding stability dG unfold” value was 3.42 ± 0.24 kcal/mol in series [1] and over 6 kcal/mol in series [2].
With “SAMKTTETITVTVEMEPEVAEEVAEEIAEKIEKEKNYEITEVKVSVFPTDGKYVVRVPIKITYPTPELKSAG [r14_219_JUSTAS]”, the “folding stability dG unfold” value in series [1] is -0.771 ± 0.42 kcal/mol; in series [2], under -1 kcal/mol.
Take “SAMTTLEKEGDVTITRTKLPDGTVVVTTEVPESRPLAELTTETITIYPDGTVTTTSQTLTLDPATGRLGSAG [r14_724_JUSTAS]”: the “folding stability dG unfold” value in series [1] is -0.146 ± 0.075 kcal/mol; in series [2], -0.567 ± 0.23 kcal/mol.
On to “SARPLTIMNPDGMMYRLDPDEGEIEFQNASDGEELKIKVKPKGNGVEIDIEFNGQPHEHKIPKGDWIMIPSA [r9_239_TrROS]”, for which the “folding stability dG unfold” value came to 0.662 ± 0.088 kcal/mol in series [1] and 0.157 ± 0.33 kcal/mol in series [2].
As to “SASLENGGVKTVEDTEYDPATNTVTFKKVTTYYGDEVLSTSTATVPLPPKPLPPPPVVERDPTNPRYLESAG [r14_571_JUSTAS]”, the “folding stability dG unfold” value was -0.368 ± 0.91 kcal/mol in series [1] and under -1 kcal/mol in series [2].
Take “SDDLSTTVTVTTPGGPTLTLTFPSNASVSTSPIDENSIVITFPGYEAVVEIAPGGKPRLKEVSEKEPVDSSA [r9_773_JUSTAS]”: the “folding stability dG unfold” value is -0.534 ± 0.2 kcal/mol in series [1] and under -1 kcal/mol in series [2].
“SEALILDPNVETVSPVFYLLLSPEEAEERARELREELRAELEAAGLPLPEDVVIEVVPAESEEELRALLESA [r9_204_JUSTAS]”: the “folding stability dG unfold” value in series [1] was determined as 0.5 ± 0.049 kcal/mol; in series [2], 0.00109 ± 0.18 kcal/mol.
As to “SGPDVPLTPEEVAARIKAELLEKHPIGEVTPVELREFPELGVVEVRLRINVKGPPGETREIDVRLSRERLSA [r9_1002_JUSTAS]”, the “folding stability dG unfold” value came out at 0.694 ± 0.13 kcal/mol in series [1] and 0.0428 ± 0.21 kcal/mol in series [2].
As to “SGSMTPLTVEREVDITVVETRFLPNGGEVKKRRVTVTTTVTLPGGVPVSTQTTTIESPDLSEEEILERLSSA [r9_371_JUSTAS]”, the figures for the “folding stability dG unfold” value in series [1] and in series [2] were 0.357 ± 0.051 kcal/mol and -0.752 ± 0.15 kcal/mol, respectively.
On the same counts, the results for “SKKWKVDLDIQEDPDNGTVIGMVRVESEDGEKRPPPEEIARELAEKLREKGYKVEAEPHPGWFMITVKPPSA [r9_510_TrROS]” are 0.371 ± 0.24 kcal/mol and 0.153 ± 0.48 kcal/mol.
On the same counts, the results for “SMPKVVKTVKITKSEAKEFLEKLDIGPDKSVTILETDPNGKSSLHTIGPNKILSSEPVDTLPNTWTIEISSA [r9_849_JUSTAS]” are -0.0776 ± 0.13 kcal/mol and -0.416 ± 0.35 kcal/mol.
Take “SMPVTFTMKTPENRKKLEEAIKEIEEEYPIKVEEVEKDPKGTYTYKVEMDPEIIEKVKKKLEEAGNVTLESA [r9_472_JUSTAS]”: the “folding stability dG unfold” value in series [1] was -0.343 ± 0.23 kcal/mol; in series [2] it was -0.822 ± 0.97 kcal/mol.
On to “SMVKAKVEVNPETNAAVVEFELPELKVIALRVFDENNEVHTLVEVEIPPGPRVPLAEIPLKPNEELVLPLSA [r9_1172_TrMRF]”, for which the results for the “folding stability dG unfold” value in series [1] and in series [2] were 0.0917 ± 0.26 kcal/mol and -0.685 ± 0.76 kcal/mol, respectively.
In the case of “SSPGLVEVTIPLKIVLEPLAPDGTPAPRPVATVPIKTAASSEDPSAIEQAKEDVIKELKPEFPDAKFVVESA [r9_1112_JUSTAS]”, the figures for the “folding stability dG unfold” value in series [1] and in series [2] were 0.223 ± 0.065 kcal/mol and under -1 kcal/mol, respectively.
